From PMC12719470

Molecular target: Nanobody-161 IgG1 Y105G
Assay: BLI; 30 nM Nanobody-161 IgG1 or mutant immobilised on Protein A biosensors (Gator); 4800 nM-300 nM TNFR2-His in Q Buffer (PBS, 0.02% Tween 20, 0.2% BSA); 25 °C; association 120 s, dissociation 180 s; global 1:1 Langmuir fit

Sequence of TNFR2-His protein (P20333 23-461): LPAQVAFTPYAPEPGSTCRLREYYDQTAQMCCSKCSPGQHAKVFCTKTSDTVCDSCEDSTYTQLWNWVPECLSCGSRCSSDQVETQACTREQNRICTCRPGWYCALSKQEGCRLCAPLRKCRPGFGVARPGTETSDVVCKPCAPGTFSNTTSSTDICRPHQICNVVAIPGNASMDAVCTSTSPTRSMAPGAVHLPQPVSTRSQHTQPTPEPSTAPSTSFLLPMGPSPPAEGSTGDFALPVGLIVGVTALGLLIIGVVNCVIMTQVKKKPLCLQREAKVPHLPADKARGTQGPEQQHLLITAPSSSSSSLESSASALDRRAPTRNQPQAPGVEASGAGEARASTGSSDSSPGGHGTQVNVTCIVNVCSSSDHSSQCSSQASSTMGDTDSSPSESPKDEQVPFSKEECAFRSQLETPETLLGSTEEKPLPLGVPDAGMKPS
Sequence of Nanobody-161 IgG1 Y105G (heavy, as listed by the source): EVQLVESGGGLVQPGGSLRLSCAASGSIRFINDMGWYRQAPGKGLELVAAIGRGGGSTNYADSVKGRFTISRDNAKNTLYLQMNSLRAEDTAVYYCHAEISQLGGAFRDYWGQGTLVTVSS

With “TNFR2-His protein (from UniProt P20333 23-461) (receptor)” as the substance, how does the Kd read?
The Kd was 214 µM.

And the koff?
The koff was 0.0917 s⁻¹.

And the kon?
The kon was 429 M⁻¹ s⁻¹.
